Measurements taken from the supplement of paper PMC9233669.
This sample holds only a part of the variants without activity.

Legend:
[1] = tested on: biotinyl-Leu-oxazolone; test: self-aminoacylation, catalytic enhancement (BLO) (fold over background); higher = more active; k-Seq, kA / k0A0; sequences stand for … in GGGAAUGGAUCCACAUCUACGAAUUC…UUCACUGCAGACUUGACGAAGCUG
Procedure, shortened: (§1)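 Working in 50 μL HEPES/NaCl/KCl/MgCl2/CaCl2 buffer with 5% acetonitrile at pH 6.9–7.0, mutagenized RNA pools (0.43 μM; 21-nt variable region) were reacted with 2–1250 μM of each biotinyl-aminoacyl-oxazolone for 90 minutes at room temperature. Streptavidin capture followed, with quantification by triplicate qPCR and Illumina sequencing. Catalytic enhancement is reported as median kA over the uncatalyzed rate, the low-activity peak of a bimodal Gaussian fit to the data.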

[2] = tested on: biotinyl-Val-oxazolone; test: self-aminoacylation, catalytic enhancement (BVO) (fold over background); higher = more active; k-Seq, kA / k0A0; sequences stand for … in GGGAAUGGAUCCACAUCUACGAAUUC…UUCACUGCAGACUUGACGAAGCUG
Procedure, shortened: as §1

[3] = tested on: biotinyl-Met-oxazolone; test: self-aminoacylation, catalytic enhancement (BMO) (fold over background); higher = more active; k-Seq, kA / k0A0; sequences stand for … in GGGAAUGGAUCCACAUCUACGAAUUC…UUCACUGCAGACUUGACGAAGCUG
Procedure, shortened: as §1

[4] = tested on: biotinyl-Ile-oxazolone; test: self-aminoacylation, catalytic enhancement (BIO) (fold over background); higher = more active; k-Seq, kA / k0A0; sequences stand for … in GGGAAUGGAUCCACAUCUACGAAUUC…UUCACUGCAGACUUGACGAAGCUG
Procedure, shortened: as §1

[5] = tested on: biotinyl-Phe-oxazolone; test: self-aminoacylation, catalytic enhancement (BFO) (fold over background); higher = more active; k-Seq, kA / k0A0; sequences stand for … in GGGAAUGGAUCCACAUCUACGAAUUC…UUCACUGCAGACUUGACGAAGCUG
Procedure, shortened: as §1

[6] = tested on: biotinyl-Trp-oxazolone; test: self-aminoacylation, catalytic enhancement (BWO) (fold over background); higher = more active; k-Seq, kA / k0A0; sequences stand for … in GGGAAUGGAUCCACAUCUACGAAUUC…UUCACUGCAGACUUGACGAAGCUG
Procedure, shortened: as §1

Sequence	self-aminoacylation [1]	self-aminoacylation [2]	self-aminoacylation [3]	self-aminoacylation [4]	self-aminoacylation [5]	self-aminoacylation [6]
CUACUUUAAACAAUCGGACUG [Fam1A.1 aminoacylation ribozyme variant]	0.759	0.757	0.874	0.901	0.698	0.809
AUUCACUUAGGUCAUCGGGGG [Fam2.2 aminoacylation ribozyme variant]	2.74	1.95	2.13	2.04	2.12	2.16
CUACUUCAAAGAAUCGGUGUG [Fam1A.1 aminoacylation ribozyme variant]	1.28	0.803	0.905	0.994	1.04	1.02
AAGUUUGCCAAUAGUUGCAAG [Fam3.1 aminoacylation ribozyme variant]	0.958	0.866	0.895	0.948	1.39	0.808
CUAGUUCAAAGAAUCGGUCUG [Fam1A.1 aminoacylation ribozyme variant]	1.14	0.951	1.04	0.967	1.5	1.44
CUACUUCAAACCAUCGGCCUG [Fam1A.1 aminoacylation ribozyme variant]	1.45	1.94	1.63	1.82	1.51	1.71
AUUACCCUGGUCACCCAGUGA [Fam2.1 aminoacylation ribozyme variant]	6.87	3.6	7.54	4.12	46.1	8.27
AUUACCCAGGUCAUCGAGUUA [Fam2.1 aminoacylation ribozyme variant]	0.915	1	0.882	1.01	1.39	1.32
CCACACUUCAACCAAUCGGUC [Fam1B.1 aminoacylation ribozyme variant]	2.17	1.5	1.38	1.38	60.5	35.2
AAGUUUGCUAAUAGUCGAUAG [Fam3.1 aminoacylation ribozyme variant]	0.805	0.846	0.781	0.824	1.42	0.829
CUAGCUCAAACAAUCGGUCUG [Fam1A.1 aminoacylation ribozyme variant]	0.742	0.914	0.776	0.817	4.58	3.09
AAGUUUGCUAUUAGUCGCAAG [Fam3.1 aminoacylation ribozyme variant]	0.76	0.823	0.814	0.848	1.08	0.826
CUACUCCAAACAAUCGGACUG [Fam1A.1 aminoacylation ribozyme variant]	0.6	0.711	0.762	0.74	1.13	0.909
AUUCACCUAGGACAUCGGGAG [Fam2.2 aminoacylation ribozyme variant]	1.03	0.991	1.08	1.02	0.29	0.92
AUUACGCUGGUCAUCGACUGA [Fam2.1 aminoacylation ribozyme variant]	1.73	1.24	0.889	1.48	0.691	1.65
CGACACUUCAAGCAAUCGGUA [Fam1B.1 aminoacylation ribozyme variant]	1.41	1.84	1.44	1.86	2.02	2.9
AUUUCCCUGGUAAUCGAGUGA [Fam2.1 aminoacylation ribozyme variant]	8.19	4.01	7.89	3.84	57.7	9.31
AUUACCCUGGUCAUCAAGUGC [Fam2.1 aminoacylation ribozyme variant]	0.567	0.795	0.691	0.689	0.434	0.302
AAAUUUGCUACUAGUCGCAAG [Fam3.1 aminoacylation ribozyme variant]	1.59	1.63	1.96	2.05	1.86	2.54
CUACUUCAAACAAGUGGUCUG [Fam1A.1 aminoacylation ribozyme variant]	0.885	0.919	0.7	0.968	0.734	0.516
CCACUCUUCAAGCAAUAGGUC [Fam1B.1 aminoacylation ribozyme variant]	0.669	0.668	0.558	0.784	0.921	0.484
